Laboratory results from the RNAGym collection of RNA variant scans (doi:10.7554/elife.90254).

B1: LINE1-full (parent)
chain: UACGUAGGUGGUUUUCCCCUGAUAGUGCUAAGGGGGCCUGGAAGUUUGGACUGGGCAGAGCUCAACACAGCGUGGCAAAGUGGCUGUGGCUAGACUGCCUCUCUGGAUUCCUCGUCACUCAGCAGGGCAUCUCUGAGAGAAAUGCC

Variants of: B1
Test: self-cleavage, relative activity (ratio to wild type); higher = more cleavage; in vitro, sequencing; the parent is a self-cleaving ribozyme

Variant | self-cleavage
G72A G135U | 1.2
U13C U73C | 1.17
U39C U115C | 1.37
C103U U134C | 1.48
G74A U100C | 1.62
G127A A140G | 0.9
C3U U15C | 0.45
U12C U39A | 1.32
A65G U100A | 0.09
A42G A79U | 1.57
U62C U112A | 0.05
U47C C118A | 0.46
U47G A142C | 1.25
A43U C110U | 0.83
G4A A121G | 1.78
G60A G139U | 0.03
G41A U104C | 1.53
A43G U73C | 1.3
A43G G82A | 1.31
C76U A94G | 0.18
A42C U73C | 0.75
A64U A129G | 0.66
U15A A79G | 0
U100A G137A | 0.85

Variant | self-cleavage
U12A U47C | 1.17
U23C A136U | 1.19
G25A U62C | 0.11
A43C C66U | 0.04
G4C U85C | 0.13
A24C G114A | 0.68
C37G A57U | 0.1
U104C G105U | 1.66
A69C U119A | 0.04
G34U U46A | 1.32
A43G U85C | 0.2
U13G U132G | 2.18
U15C C133U | 1.51
A42G A124U | 1.35
U100A A129G | 1.49
U1C G8A | 0.49
A50U U143C | 1.16
A79G A129G | 1.62
U47C U73G | 1.38
G122C A140G | 1.36
U15C A77G | 1.55
A2G U13A | 0.99
U46A U73C | 1.5
U1C C98U | 0.13

Variant | self-cleavage
U47A C71U | 0.9
U5A A65U | 0.26
G137C | 1.3
U9G A31C | 1.72
U47C A107G | 1.43
C19U A94U | 0.14
U13C G21A | 0.94
U39G A121G | 1.23
A129G U130C | 1.69
G21U C56G | 0.02
U109G U119C | 0.49
U52C U62A | 0.08
C19U U39A | 1.07
U1A A117G | 1.37
C110U U119C | 1.39
A50G C56U | 0.06
U62A U109C | 0.05
A65U A140G | 0.26
A24G A30G | 0.42
A136G U143A | 1.34
U26A U100G | 1.31
C110G | 1.04
U13C U115A | 1.3
A57U A78U | 0.03

Variant | self-cleavage
A69G A138G | 0.56
A31U G33C | 0.81
A50U C146U | 1.07
C84U G89A | 0.04
U9A A124U | 1.2
U45A C63A | 0.05
G97U G127A | 0.04
U13A C145U | 1.26
A22C A124G | 1.92
A31G A79G | 1.23
U45C G89A | 0.01
U62C A67U | 0.05
A94U U102A | 0.33
C128G | 0.98
U29C U132C | 1.46
U39A C90G | 0.04
A30G U96C | 0.45
U20A U143A | 1.43
U15C U39G | 1.6
U100C G122C | 2.12
U13A G83A | 0.58
A67U G74A | 0.08
A92U G106U | 0.62
U14C G34A | 0.92

Variant | self-cleavage
C71G U130C | 0.45
G49U U132C | 1.06
U102G A140G | 0.39
A6G G7U | 1.33
U39A A117U | 1.63
C28U A64U | 0.33
A24G A138G | 1.07
U45C U100C | 1.93
G75C U109C | 0.62
G7U U87C | 0.18
G48U U85A | 0.1
G33U U115A | 1.38
U20C U132C | 1.23
U81C A92G | 0
U5G A59G | 0.19
A43C A78U | 2.11
U1C C51U | 0.71
U85A A142C | 0.14
C123G C133A | 1.46
U85C U134A | 0.14
C51U A121G | 1.85
A6G A138U | 0.67
U1A A31U | 1.11
A136U A141G | 1.3

Variant | self-cleavage
A117G U143C | 1.45
G33U U132G | 1.74
U29C A107U | 1.21
A42U A57G | 0.63
A6G G83A | 0.26
G55A C63U | 0.13
G80A A121G | 2.16
G93A A141U | 0.04
U73G U81G | 1.05
U81C A107G | 1.21
A30C A69G | 0
U9A C61U | 0.02
A31G U39G | 1.37
G34U A69G | 0.47
C90U A141G | 0.03
U62A C116A | 0.05
A43U C90A | 0.07
A59G C113U | 0.06
U9C U85G | 0.27
A69G U130C | 0.67
U13A U47A | 1.01
U23G | 1.18
A65G U134A | 0.04
U46C A142G | 1.35

Variant | self-cleavage
A77G G82U | 2.49
U91A U104C | 0.42
A64U | 0.41
U85A C116U | 0.11
U14C C145G | 0.63
U9A A140C | 1.06
U12C U29C | 1.44
U39C G60A | 0.02
U9G U45A | 0.73
C17U U29C | 0.81
U85C G125U | 0.11
A2U U115A | 0.77
A59G U108C | 0.11
A50U A69C | 0.04
U45G A92G | 0.09
A77G U85G | 0.2
U12A U85A | 0.15
G80U | 1.36
U20C A141U | 1.36
U130A A136U | 1.18
U96A U119C | 0.11
U5C A94U | 0.76
G114A G127A | 1.74
G41A U130A | 1.57

Variant | self-cleavage
G7U A65U | 0.17
U23A U115C | 1.18
U100G C113U | 1.49
A64U G122C | 0.44
C37A A136G | 1.04
C68A C146U | 0.06
G34A A78G | 1.27
G86A A92G | 0.02
G4C A107G | 0.29
A24G A50U | 1.55
U12G A65U | 0.23
U13C U52G | 1.3
C38U C101U | 1.82
A140G G144U | 1.05
U102C A136C | 0.97
C71A A77G | 0.18
G33U U104C | 1.62
A57U A117C | 0.28
A77U A79U | 1.89
U14C A77G | 1.73
A43G C118U | 1.19
U9A U85A | 0.09
C19U U47A | 0.69
C3G A50U | 0.16

Variant | self-cleavage
G34C U73C | 1.82
A65U G139A | 0.15
U9A C16U | 0.45
U15A G72A | 0.92
C66U U109A | 0.03
G106U A117G | 1.22
A79G C113U | 0.75
A30G G74A | 0.56
U13A C37U | 0.72
U9C C16A | 0.59
U73C C98A | 0.21
U9A U143G | 1.98
C37U G53A | 1.33
U23C A142G | 1.61
A107G C113A | 1.94
C84U U134C | 0.19
C37U A129U | 0.45
C38A A43G | 0.59
G86A U119C | 0.07
U23A U46G | 0.35
U23A U46C | 1.57
C68U G122U | 0.21
C28A U102A | 1.12
U14C G32C | 1.58

Variant | self-cleavage
A129U A140G | 1.53
U9C U12G | 1.15
A64G A121U | 0.22
A50G A67C | 0
C18U A124U | 1.27
U85A U96G | 0.15
A22G G88A | 0.14
A2U U104A | 0.26
A69G A79C | 0.17
A107G U108C | 1.42
U20A C90U | 0.02
G97A U109C | 0.05
A92G U102C | 0.11
G34A G114A | 1.47
G72A U143C | 1.65
U73C U87A | 0.31
U91C C99A | 0.11
U26C | 1.24
U26A C110A | 0.95
U9A G93U | 0.3
U29A G48A | 1.01
A50G A121G | 1.11
U45C C51A | 0.2
U9C A67G | 0.48

Variant | self-cleavage
U12C A142C | 1.38
C84U A129G | 0.18
U29C U47A | 1.11
G88A A92G | 0.02
G97U U104A | 0.02
U81C U100A | 1.05
A50G U73C | 1.31
U91A U96C | 0.12
A94U A138G | 0.32
A42G A67G | 0.88
U102A A138G | 1.62
U52C A59U | 0.72
G40A A136U | 1.04
U1C C146U | 1.08
U39A U109A | 1.45
U112C A140G | 0.83
U13A U143G | 1.01
U13A G125U | 1.03
G93U U102A | 0.02
U45A U102C | 1.45
C84A U130C | 0.15
U52C U85A | 0.13
C120U A142U | 1.52
A2C C17G | 1.03

Variant | self-cleavage
A65G G74A | 0.01
U1A A59U | 0.91
A79G U91C | 0.45
A94G C99U | 0.19
C18A U46C | 1.65
C123U | 1.16
U73C C111U | 2.14
G7A U52A | 0.89
U85A A94U | 0.07
G83A U112C | 0.54
U85C C113A | 0.08
A2G G105U | 1.3
A94C A140G | 0.04
G35U C145U | 1.21
U62C | 0.05
A30G U132G | 1.93
A67U U109C | 0.04
U39C U81A | 1.44
U46A A129U | 0.78
G127A U134G | 1.1
U62G A78G | 0.06
U62A C71U | 0
U26A C133U | 1.01
G25A C76U | 1.35

Variant | self-cleavage
A57U G144A | 0.16
G8A G86A | 0.09
A78G A129G | 1.65
G53A | 1.32
C19U A57G | 0.88
U20G A140G | 0.96
A24G A77G | 1.41
A42U U112C | 1.08
G35U U102C | 1.73
U73A U130C | 1.82
G126A U143C | 0.77
A59G U85A | 0.04
U12C C84U | 0.15
U1C G36A | 1.06
U9C G106A | 1.71
U26C G34A | 1.03
A22G U45C | 1.33
A24G U47C | 1.05
U12C U85C | 0.12
G44A A129U | 1.43
U9C A42G | 1.32
A42G U45G | 0.1
G88A U102A | 0.04
C38G A43G | 1.6

Variant | self-cleavage
A136U A140G | 1.7
A136U A138G | 1.55
A65U U91C | 0.08
G10A A22C | 1.54
A59G G135A | 0.08
U45C G54A | 0.43
G36A C113U | 1.02
U20C U104A | 1.17
U108C G126U | 2.03
G126U U143C | 1.33
U87C U130C | 0.35
C111A | 1.25
G10C U73C | 1.64
A64U C68A | 0.01
G33A U143C | 1.44
A24G U102C | 1.73
U20A A43C | 0.84
A31U U96A | 0.07
U29A U102C | 1.2
U81C U102A | 1.05
A79U U130C | 2.63
G53U U81A | 1.52
